Results taken from patent publication US20250066831.

Legend:
[1] = tested on: ELP-CVLS (protein substrate of the in vitro farnesylation reaction)
[2] = tested on: V40 elastin-like polypeptide fused to CVLL
Sequence of V40 elastin-like polypeptide fused to CVLL (chain, as listed by the source): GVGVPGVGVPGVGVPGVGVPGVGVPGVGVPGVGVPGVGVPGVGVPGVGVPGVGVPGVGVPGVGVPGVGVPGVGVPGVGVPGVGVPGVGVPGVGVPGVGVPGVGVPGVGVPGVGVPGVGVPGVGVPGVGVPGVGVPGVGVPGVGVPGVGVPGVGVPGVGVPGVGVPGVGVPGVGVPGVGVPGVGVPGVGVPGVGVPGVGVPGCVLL

| Substance | in vitro farnesylation (3 µM ELP-CVLS, 0.2 µM FTase, 10 µM FPP, RP-HPLC) [1] | farnesylation on co-expression in E. coli (HPLC, MALDI-TOF MS, NMR of purified V40-Fr) [2] |
| --- | --- | --- |
| farnesyltransferase (FTase) from Rattus norvegicus, heterodimer of alpha and beta subunits | In vitro farnesylation of ELPs with the soluble transferase (produced as a translationally coupled heterodimer) indicates that the recombinantly expressed enzyme is active | – |
| geranylgeranyl transferase type I (GGTase-I) from Rattus norvegicus, heterodimer of alpha and beta subunits | – | only one farnesyl group is added to the protein at the cysteine residue located in the C-terminal CaaX motif |
